Reference: patent US7803382B2, “Method for inducing immune response to NY-CO-58” (Ludwig Institute for Cancer Research Ltd., priority 2001, dated 2010)

System: sera from colon cancer patients
Assay: Spot assay: reactivity of serologically defined colon cancer antigens with colon cancer patient sera
Assay type: binding, human
Settings: reactive sera/sera tested; includes autologous where applicable; sera 1:200
Description: Serum samples from patients with colon cancer were screened using a modification of the plaque assay, termed a spot assay. In this method, 80×120 mm nitrocellulose membranes were precoated with a film of NZY/0.7% Agarose/2.5 mM IPTG and placed on a reservoir layer of NZY/0.7% Agarose in a 86×128 mm Omni Tray (Nalge Nunc International Corp., Naperville, Ill.). Approximately 1.0×10^5 pfU of monoclonal phage encoding individual serologically defined colon cancer antigens, in a volume of 20 μl, were mixed with 20 μl of exponentially growing E. coli XL-1 Blue MRF and spotted (0.7-μl aliquots) on the precoated nitrocellulose membranes. Membranes were incubated for 15 hours at 37° C. A total of 75 different serologically defined colon cancer antigens were spotted in duplicate per nitrocellulose membrane. The agarose film was then removed from the membrane and the filters were processed for reactivity with individual serum samples (1:200 dilution), as described in Scanlan, et al., Int. J. Cancer 76:652-658 (1998) and Scanlan, et al., Int. J. Cancer 83:456-64, (1999).

B1: SSX-2: serologically defined colon cancer antigen, protein SEQ ID NO:28 (protein, listed as Homo sapiens)
chain: MNGDDAFARRPTVGAQIPEKIQKAFDDIAKYFSKEEWEKMKASEKIFYVYMKRKYEAMTKLGFKATLPPFMCNKRAEDFQGNDLDNDPNRGNQVERPQMTFGRLQGISPKIMPKKPAEEGNDSEEVPEASGPQNDGKELCPPGKPTTSEKIHERSGPKRGEHAWTHRLRERKQLVIYEEISDPEEDDE
Reactivity of individual antigens: 2/75

B2: CO-45 (Tudor like): serologically defined colon cancer antigen, protein SEQ ID NO:21 (protein, listed as Homo sapiens)
chain: RVKATLSERKIGDSCDKDLPLKFCEFPQKTIMPGFKTTVYVSHINDLSDFYVQLIEDEAEISHLSERLNSVKTRPEYYVGPPLQRGDMICAVFPEDNLWYRAVIKEQQPNDLLSVQFIDYGNVSVVHTNKIGRLDLVNAILPGLCIHCSLQGFEVPDNKNSKKMMHYFSQRTSEAAIRCEFVKFQDRWEVILADEHGIIADDMISRYALSEKSQVELSTQVIKSASSKSVNKSDIDTSVFLNWYNPEKKMIRAYATVIDGPEYFWCQFADTEKLQCLEVEVQTAGEQVADRRNCIPCPYIGDPCIVRYREDGHYYRALITNICEDYLVSVRLVDFGNIEDCVDPKALWAIPSELLSVPMQAFPCCLSGFNISEGLCSQEGNDYFYEIITEDVLEITILEIRRDVCDIPLAIVDLKSKGKSINEKMEKYSKTGIKSALPYENIDSEIKQTLGSYNLDVGLKKLSNKAVQNKIYMEQQTDELAEITEKDVNIIGTKPSNFRDPKTDNICEGFENPCKDKIDTEELEGELECHLVDKAEFDDKYLITGFNTLLPHANETKEILELNSLEVPLSPDDESKEFLELESIELQNSLVVDEEKGELSPVPPNVPLSQECVTKGAMELFTLQLPLSCEAEKQPELELPTAQLPLDDKMDPLSLGVSQKAQESMCTEDMRKSSCVESFDDQRRMSLHLHGADCDPKTQNEMNICEEEFVEYKNRDAISALMPFSLRKKAVMEASTIMVYQIIFQNYRTPTL
Reactivity of individual antigens: 4/76

B3: CO-26 (MNK 1): serologically defined colon cancer antigen, protein SEQ ID NO:27 (protein, listed as Homo sapiens)
chain: HIQKQKHFNEREASRVVRDVAAALDFLHTKGIAHRDLKPENILCESPEKVSPVKICDFDLGSGMKLNNSCTPITTPELTTPCGSAEYMAPEVVEVFTDQATFYDKRCDLWSLGVVLYIMLSGYPPFVGHCGADCGWDRGEVCRVCQNKLFESIQEGKYEFPDKDWAHISSEAKDLISKLLVRDAKQKLSAAQVLQHPWVQGQAPEKGLPTPQVLQRNSSTMDLTLFAAEAIALNRQLSQHEENELAEEPEALADGLCSMKLSPPCKSRLARRRALAQAGRGENRSPPTAL
Reactivity of individual antigens: 2/76

B4: CO-42 (TRIP4): serologically defined colon cancer antigen, protein SEQ ID NO:22 (protein, listed as Homo sapiens)
chain: AEVKTPFDLAKAQENSNSVKKKTKFVNLYTRERQDRLAVLLPGRHPCDCLGQKHKLINNCLICGRIVCEQEGSGPCLFCGTLVCTHEEQDILQRDSNKSQKLLKKLMSGVENSGKVDISTKDLLPHQELRIKSGLEKAIKHKDKLLEFDRTSIRRTQVIDDESDYFASDSNQWLSKLERETLQKREEELRELRHASRLSKKVTIDFAGRKILEEENSLAEYHSRLDETIQAIANGTLNQPLTKLDRSSEEPLGVLVNPNMYQSPPQWLTTQVQPHRRRLSVLQDLD
Reactivity of individual antigens: 7/76

B5: CO-94 (seb4D): serologically defined colon cancer antigen, protein SEQ ID NO:17 (protein, listed as Homo sapiens)
chain: RPSLPRALPAAPHERSPARPGSVGGGAPPMLLQPAPCAPSAGFPRPLAAPGAMHLFAEGHHVHQDLRGRPAVPHYRRLAQEVLXGLRRHLRRPWSSPTAXRASPAATAS
modifications: X: residue not identified in the source
Reactivity of individual antigens: 4/75

B6: CO-61 (HIP1R): serologically defined colon cancer antigen, protein SEQ ID NO:19 (protein, listed as Homo sapiens)
chain: MFDYMDCELKLSESVFRQLNTAIAVSQMSSGQCRLAPLIQVIQDCSHLYHYTVKLLFKLHSCLPADTLQGHRDRFHEQFHSLRNFFRRASDMLYFKRLIQIPRLPEGPPNFLRASALAEHIKPVVVIPEEAPEDEEPENLIEISTGPPAGEPVVVADLFDQTFGPPNGSVKDDRDLQIESLKREVEMLRSELEKIKLEAQRYIAQLKSQVNALEGELEEQRKQKQKALVDNEQLRHELAQLRAAQLEGERSQGLREEAERKASATEARYNKLKEKHSELVHVHAELLRKNADTAKQLTVTQQSQEEVARVKEQLAFQVEQVKRESELKLEEKSDQLEKLKRELEAKAGELARAQEALSHTEQSKSELSSRLDTLSAEKDALSGAVRQREADLLAAQSLVRETEAALSREQQRSSQEQGELQGRLAERESQEQGLRQRLLDEQFAVLRGAAAEAAGILQDAVSKLDDPLHLRCTSSPDYLVSRAQEALDAVSTLEEGHAQYLTSLADASALVAALTRFSHLAADTIINGGATSHLAPTDPADRLIDTCRECGARALELMGQLQDQQALRHMQASLVRTPLQGILQLGQELKPKSLDVRQEELGAVVDKEMAATSAAIEDAVRRIEDMMNQARHASSGVKLEVNERILNSCTDLMKAIRLLVTTSTSLQKEIVESGRGAATQQEFYAKNSRWTEGLISASKAVGWGATQLVEAADKVVLHTGKYEELIVCSHEIAASTAQLVAASKVKANKHSPHLSRLQECSRTVNERAANVVASTKSGQEQIEDRDTMDFSGLSLIKLKKQEMETQVRVLELEKTLEAERMRLGELRKQHYVLAGASGSPGEEVAIRPSTAPRSVTTKKPPLAQKPSVAPRQDHQLDKKDGIYPAQLVNY
Reactivity of individual antigens: 5/75

B7: CO-9 (HDAC 5): serologically defined colon cancer antigen, protein SEQ ID NO:18 (protein, listed as Homo sapiens)
chain: EFLLSKSKEPTPGGLNHSLPQHPKCWGAHHASLDQSSPPQSGPPGTPPSYKLPLPGPYDSRDDFPLRKTASEPNLKVRSRLKQKVAERRSSPLLRRKDGTVISTFKKRAVEITGAGPGASSVCNSAPGSGPSSPNSSHSTIAENGFTGSVPNIPTEMLPQHRALPLDSSPNQFSLYTSPSLPNISLGLQATVTVTNSHLTASPKLSTQQEAERQALQSLRQGGTLTGKFMSTSSIPGCLLGVALEGDGSPHGHASLLQHVLLLEQARQQSTLIAVPLHGQSPLVTGERVATSMRTVGKLPRHRPLSRTQSSPLPQSPQALQQLVMQQQHQQFLEKQKQQQLQLGKILTKTGELPRQPTTHPEETEEELTEQQEVLLGEGALTMPREGSTESESTQEDLEEEDEEEDGEEEEDCIQVKDEEGESGAEEGPDLEEPGAGYKKLFSDAQPLQPLQVYQAPLSLATVPHQALGRTQSSPAAPGGMKNPPDQPVKHLFTTSVVYDTFMLKHQCMCGNTHVHPEHAGRIQSIWSRLQETGLLSKCERIRGRKATLDEIQTVHSEYHTLLYGTSPLNRQKLDSKKLLGPISQKMYAVLPCGGIGVDSDTVWNEMHSSSAVRMAVGCLLELAFKVAAGELKNGFAIIRPPGHHAEESTAMGFCFFNSVAITAKLLQQKLNVGKVLIVDWDIHHGNGTQQAFYNDPSVLYISLHRYDNGNFFPGSGAPEEVGGGPGVGYNVNVAWTGGVDPPIGDVEYLTAFRTVVMPIAHEFSPDVVLVSAGFDAVEGHLSPLGGYSVTARCFGHLTRQLMTLAGGRVVLALEGGHDLTAICDASEACVSALLSVKLQPLDEAVLQQKPNINAVATLEKVIEIQSKHWSCVQKFAAGLGRSLRGAQAGETEEAEM
Reactivity of individual antigens: 3/76

B8: MAGE-3: serologically defined colon cancer antigen, protein SEQ ID NO:29 (protein, listed as Homo sapiens)
chain: MPLEQRSQHCKPEEGLEARGEALGLVGAQAPATEEQEAASSSSTLVEVTLGEVPAAESPDPPQSPQGASSLPTTMNYPLWSQSYEDSSNQEEEGPSTFPDLESEFQAALSRKVAELVHFLLLKYRAREPVTKAEMLGSVVGNWQYFFPVIFSKASSSLQLVFGIELMEVDPIGHLYIFATCLGLSYDGLLGDNQIMPKAGLLIIVLAIIAREGDCAPEEKIWEELSVLEVFEGREDSILGDPKKLLTQHFVQENYLEYRQVPGSDPACYEFLWGPRALVETSYVKVLHHMVKISGGPHISYPPLHEWVLREGEE
Reactivity of individual antigens: 6/75

B9: REN-32 (Lamin C): serologically defined colon cancer antigen, protein SEQ ID NO:25 (protein, listed as Homo sapiens)
chain: METPSQRRATRSGAQASSTPLSPTRITRLQEKEDLQELNDRLAVYIDRVRSLETENAGLRLRITESEEVVSREVSGIKAAYEAELGDARKTLDSVAKERARLQLELSKVREEFKELKARNTKKEGDLIAAQARLKDLEALLNSKEAALSTALSEKRTLEGELHDLRGQVAKLEAALGEAKKQLQDEMLRRVDAENRLQTMKEELDFQKNIYSEELRETKRRHETRLVEIDNGKQREFESRLADALQELRAQHEDQVEQYKKELEKTYSAKLDNARQSAERNSNLVGAAHEELQQSRIRIDSLSAQLSQLQKQLAAKEAKLRDLEDSLARERDTSRRLLAEKEREMAEMRARMQQQLDEYQELLDIKLALDMEIHAYRKLLEGEEERLRLSPSPTSQRSRGRASSHSSQTQGGGSVTKKRKLESTESRSSFSQHARTSGRVAVEEVDEEGKFVRLRNKSNEDQSMGNWQIKRQNGDDPLLTYRFPPKFTLKAGQVVTIWAAGAGATHSPPTDLVWKAQNTWGCGNSLRTALINSTGEEVAMRKLVR
Reactivity of individual antigens: 3/75

B10: CO-41 (MBD2): serologically defined colon cancer antigen, protein SEQ ID NO:23 (protein, listed as Homo sapiens)
chain: PSKLQKNKQRLRNDPLNQNKGKPDLNTTLPIRQTASIFKQPVTKVTNHPSNKVKSDPQRMNEQPRQLFWEKRLQGLSASDVTEQIIKTMELPKGLQGVGPGSNDETLLSAVASALHTSSAPITGQVSAAVEKNPAVWLNTSQPLCKAFIVTDEDIRKQEERVQQVRKKLEEALMADILSRAADTEEMDIEMDSGDEA
Reactivity of individual antigens: 3/76
